According to the supplement of paper PMC9170038:

Assays:
[1] = tested on: MS2 coat protein; test: apparent KD of MS2 coat protein; designed switch direction (-1 OFF switch, 1 ON switch): 1; higher = weaker reporter binding; conditions: Eterna round: R98
Procedure: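 RNA-MaP: designed FMN/MS2 RNA switches (84 nt design region) are transcribed on-chip within common flanks and titrated with SNAP-549-labelled MS2 coat protein (about 1-3000 nM) in 100 mM Tris pH 7.5, 80 mM KCl, 4 mM MgCl2, without or with 200 uM FMN. Median apparent KD per design; activation ratio = KD,OFF / KD,ON.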

[2] = tested on: MS2 coat protein; test: apparent KD of MS2 coat protein, switch OFF state (with FMN for OFF switches, without FMN for ON switches); designed switch direction (-1 OFF switch, 1 ON switch): 1; higher = weaker reporter binding; conditions: FMN input: 0 or 200 uM; Eterna round: R93 (includes R88 designs)
Procedure, shortened: (§1)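 Designed RNA switches were transcribed on-chip from Illumina sequencing clusters. They were then titrated with SNAP-549-labelled MS2 coat protein (twofold steps, 0.7 or 1.5 nM to 3 µM; 0.8–1.5 h to 10–20 min per step) in 100 mM Tris-HCl pH 7.5, 80 mM KCl, 4 mM MgCl2, without or with constant ligand. Apparent KD is the per-design median of normalised cluster binding-curve fits.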

[3] = tested on: MS2 coat protein; test: apparent KD of MS2 coat protein, switch ON state; designed switch direction (-1 OFF switch, 1 ON switch): 1; higher = weaker reporter binding; conditions: FMN input: 0 or 200 uM; Eterna round: R93 (includes R88 designs)
Procedure, shortened: as §1

Row | Sequence | apparent KD of MS2 coat protein ([1]; input ligand: FMN 200 uM) [nM] | apparent KD of MS2 coat protein ([1]; input ligand: none) [nM] | apparent KD of MS2 coat protein [2] [nM] | apparent KD of MS2 coat protein [3] [nM]
1 | CCCUCCAGAAGAGGGACAUGAGGAUCACCCAUGUAGGCUGCACAGGAUAUCGAUCGGAGGCGGUACGAGAAGGGUGACGUCAUU [Atleis] | 48.7 | 26.9 |  | 
2 | AAAACAUGAGGAUCACCCAUGUAAAGAACGGUUAAUUAAAGUGAGGAUAUACAAAAUUUUAUAUAGUAGAAGGCACUGGGUACA [JR_SSNG3_Sub022] | 24.9 | 21.4 |  | 
3 | UGAUCGCUUGGAGGAUAUCCAACUAUCCUAGUUGGAGAAGGCCAAGCUACAGAGCUAAGCUUGGAAGUCACUUCGGAUCAACAC [pwkr ssNG1 F9.4.1] | 65.5 | 32.7 |  | 
4 | GGCUUAAACACAGGAUAUAGCCUUAGAGUGAGGCUAGAAGGGUGAAGUUCUCAUACAUGAGGAUCACCCAUGUCACGGAGGCUA [Atteedbian] | 307 | 37.1 |  | 
5 | CCUGACACUUGAGGAUAUGCUCAGGAUAACUGAGCAGAAGGCAGGAAAACCUGAGGAUCACCCAGGUAAGUCAGGAAUAAUAAA [Same State NG1 - A3C, U17G Submission 3B] | 15.8 | 21.7 |  | 
6 | UAUAUAUGGUGAGGAUAUGCAGAGGAUCACCCUGUAGAAGGCAUCAGGGUAGAAGGUGCAAGGAUCACCUGUAAGGAUAUAUCC [pwkr2 ssNG1 DX.30] | 587 | 1370 |  | 
7 | GUAGCAUACAGAGGAUAUUCAAACCGGAAACGGACAUGAGGAUCACCCAUGUGGCGAAAGCCUAGGGAGAAGGCUGAAUGCUAC [Xeinanis 75 40] | 11.7 | 16 |  | 
8 | CCAGAUGUGUGAGGAUAUAGAGUGGAAUACACUCUAGAAGGUAUGUGAAAACAUGAGGAUCACCCAUGUGAUUAAUCAUCUGGA [SameState #2 NG1] | 27.9 | 24.4 |  | 
9 | GCAGAAGGUGCGGAGGAUCACCCUGUAAGGAUAUGCAUUAGCAAGGAUAUACAGAGGAUCACCCUGUAGAAGGUGCACUACUCA [pwkr2 ssNG3 DX.3] | 562 | 1970 |  | 
10 | GGAUCCAACACAGGAUAUGCUGGACUUUGUCCAGCAGAAGGGUGAAACAUGAGGAUCACCCAUGUAUGGAUCCAUAUAUUUAAU [Denovo 32] | 245 | 629 |  | 
11 | AGAAAUAAAAGAGAGGAUAUCCAAAAGAAAACAUGAGGAUCACCCAUGUAAAAGAAAAUAAAAUGGGAGAAGGCUCAAUAAAAGA [Modifying Jieux] |  |  | 42 | 17.9
12 | AUAAAACAUGAGGAUCACCCAUGUCCGACAAAUCAAGGAUAUGAGAGCCAAACCAGGCUGUUAGAAGGUGAAAGAA [Edorlebere] |  |  | 182 | 154
13 | GACAGACAUGAGGAUCACCCAUGUAGAAUUAUGGGAGGAUAUACAAAGACGAGAGUCAGAGUAGAAGGCCUAGGAA [salish99-ss1-167] |  |  | 52.8 | 23.2
14 | GAUAGGAAGAGAGAGGAUAUCCAAAGGAAAACAUGAGGAUCACCCAUGUAAAAGGUAGGAAAUUGGGAGAAGGCUCAAGAGAGAG [salish99-ss2-075] |  |  | 31.9 | 11.6
15 | AGGAAACAUGAGGAUCACCCAUGUAAAAAUAUGGGAGGAUAUUGAAAGACGAAAGUCAAACAAGAAGGCCUAAAAG [Garnet 21] |  |  | 128 | 24
16 | AAAAGACAUGAGGAUCACCCAUGUAAAGACAUGAGAGGAUAUGCAUGGAAAACAUGCUGUGCAGAAGGCUCAUGUC [SS1 - 17] |  |  | 22.6 | 18.1
17 | UUUAGUUGCGGGCAGGAUAUGUAUUAAAAUACAUGAGGAUCACCCAUGUGCGGGUAUAACACCCGACAGAAGGGCCAAUCGCGAC [Laonerce] |  |  | 305 | 18.3
18 | AAGAAACAUGAGGAUCACCCAUGUGAUAAUAUGGGAGGAUAUACGAAGACGAAAGACGAAGUAGAAGGCCUAUGAA [Garnet 45] |  |  | 83.3 | 46.9
19 | UGAGGACAUGAGGAUCACCCAUGUAGGCCACAAUCAGGAUAUGCAUUAAGGUACCUAAGAGUAGAAGGGAUUCGAG [SameState_Neo] |  |  | 30.8 | 34.9
20 | AGCGGUAGGACAGGAUAUGGUGACUUCAAGCGGCCAGAAGGGUCCCGACAUGAGGAUCACCCAUGUCUUCCAGGCAGGGAGCGC [Teanisradi] | 710 | 234 |  | 
21 | AAGAAACAUGAGGAUCACCCAUGUAAGAUAAACACAGGAUAUGCGAAAAGAAACAAAUAAGCAGAAGGGUGAAGAA [Mat - Same State 1 - Tesla mod - 64] |  |  | 23 | 16.3

Row | Sequence | apparent KD of MS2 coat protein ([1]; input ligand: FMN 200 uM) [nM] | apparent KD of MS2 coat protein ([1]; input ligand: none) [nM] | apparent KD of MS2 coat protein [2] [nM] | apparent KD of MS2 coat protein [3] [nM]
22 | CGAAAGGAGAGAGAGGAUAUCCAAAGGAAAACAUGAGGAUCACCCAUGUAGAAGGUAGGAGAUUGGGAGAAGGCUCAAGAGAGAC [salish99-ss2-148] |  |  | 48.2 | 24
23 | GUCCCAGUCACAGGAUAUGGCUCCGUAAUGGAGCCAGAAGGGUGAUAUUCAGAAAACACACAUGAGGAUCACCCAUGUAAUAAA [Enindiinso] | 188 | 774 |  | 
24 | GCUUGCGACGCAGGAUAUGGGUGCCUGCACAUGAGCAUCAGCCAUGUUGAGGAACGGAUUACGUCUCAGAAGGGCGUGGCAGGC [United States 3 - Jieux - Same State NG 2] | 16.7 | 19.9 |  | 
25 | AAAAAACAUGAGGAUCACCCAUGUAAAAAUAUGGGAGGAUAUACAAACACGAAAGUGAAAGUAGAAGGCCUAAAAA [SS! MT 17] |  |  | 85.3 | 19
26 | AUAAAUAAAAGUGAGGAUAUCCAAAAAAAAACAUGAGGAUCACCCAUGUAAAAGAAAAUAAAAUGGGAGAAGGCACAAAAUAAAU [SS2 M 10] |  |  | 26.2 | 11.9
27 | GACGAAAUCUUAGGAUAUGCUCAGGAAUACUGAGCAGAAGGAAGAUAUACCUGAGGAUCACCCAGGUUAAACUGGACGUCAAUA [Same State NG1 - A3C, U17G Submission 8I U7A] | 24.9 | 29.4 |  | 
28 | GAAAUACAUGAGGAUCACCCAUGUUAGGUGGGUCAAGGAUAUUGAUAUAAAUAAAAAACUCGAGAAGGUGAAUAAA [JR_SS001_Sub201] |  |  | 179 | 229
29 | AACAAUCUAUCUGAGGAUAUCAUGACAAAGACAUGAGGAUCACCCAUGUCCAGGAAAACUGGUUAUGAGAAGGCAGAUAGAUUGA [SS2: 1112] |  |  | 13.2 | 9.7
30 | CAGGACAUAGGAUAGGAUAUAUGAAUAAUUACAUGAGGAUCACCCAUGUCCAUUUAUAUGGGAACAUAGAAGGGUUGUAGUUAUG [Mat - Same state - Malcolm Mod - D143] |  |  | 388 | 515
31 | CGGCUAAACGGGCAGGAUAUGUUCACUAGAACAUGAGGAUCACCCAUGUGAAACUGGCGAUAAUCGCAGAAGGGCCCGUGCACGA [Atensoin] |  |  | 61.3 | 17.6
32 | GCCGGUUAUGAGCAGGAUAUGUCACCGCUAACAUGAGGAUCACCCAUGUGAGCAAAAUCGAGGUCACAGAAGGGUUCCGGCAAAA [Disoerce] |  |  | 41.9 | 17.8
33 | AUAAUACAUGAGGAUCACCCAUGUCAAGGCUAUCAAGGAUAUAGACAACGUAGCGGUUGACUAGAAGGUGAGAAAU [Onxeanis] |  |  | 78.8 | 124
34 | AAAAAACAUGAGGAUCACCCAUGUGAAGAUAUGGAAGGAUAUACAAAGACGAAAGUCAAAGUAGAAGGUCUAAAAG [76%, Meechl 3] |  |  | 17.7 | 17.1
35 | UGAAGACAUGAGGAUCACCCAUGUGGGAAUAUGGGAGGAUAUACAAAGACGAGAGUCAGAGUAGAAGGCCUAGGAG [salish99-ss1-97] |  |  | 103 | 55.1
36 | AAAAAACAUGAGGAUCACCCAUGUGAGAACAUGGGAGGAUAUACGAGGACGAGAGUCAAGGUAGAAGGCCUAAAAG [Garnet 73] |  |  | 13.6 | 50.1
37 | AAAACACAUGAGGAUCACCCAUGUGAAAACAUGAGAGGAUAUGCAUGGAAAACAUGCUAUGCAGAAGGCUCAUGUG [SS1 - 8] |  |  | 23.2 | 16.5
38 | AAUAGACAUGAGGAUCACCCAUGUGUAUAUGGGAGAGGAUAUACGGGACACAAGGGCGGAGUAGAAGGCUCGAGAC [Same Satate 1] |  |  | 83.9 | 68.2
39 | GAAAAACAUGAGGAUCACCCAUGUAGAAAUAUGGGAGGAUAUACGAAGUCGAAAGACAAAGUAGAAGGCCUAAAAG [Garnet 27] |  |  | 50.4 | 27.9
40 | GCAAAACAUGAGGAUCACCCAUGUGAAAAGAAUGUAGGAUAUGGGCUCAGAAAUAGCAGCCCAGAAGGGCGAAGAA [Xequamara] |  |  | 24.8 | 21.9
41 | AAGAAACAUGAGGAUCACCCAUGUAAGAUAAACACAGGAUAUGCGAAAAUAAACAAAUAAGCAGAAGGGUGAAAAG [Mat - Same State 1 - Tesla mod - 76] |  |  | 19.3 | 15.2
42 | GAAGACAUAGUUCAGGAUAUAUGAAUAGUCACAUGAGGAUCACCCAUGUCCAUUUAUAUGGGCACAUAGAAGGGAGGUAGUUAUC [SameState2 Malc#25] |  |  | 380 | 618
